This passage reports stoichiometry N results from PMC3430215.

In this assay the target is Dunaliella salina Hsp90 (DsHsp90) (Dunaliella salina). The assay is described as follows: SEC; Superdex G200 10/30 column on an AKTA system; 40 mM HEPES, 25 mM KCl, pH 7.5; apparent molecular weight from a standard curve of markers; single peak. (SEC sorts molecules by how far they enter the pores of the column.)

One may read the stoichiometry N as a count of units in the complex or per binding partner. For the substance “Dunaliella salina Hsp90 (DsHsp90) (natural protein)”, the stoichiometry N is 2.
